Test results taken from the RNAGym collection of RNA variant scans (doi:10.7554/elife.90254).

B1: LINE1-full (parent)
chain: UACGUAGGUGGUUUUCCCCUGAUAGUGCUAAGGGGGCCUGGAAGUUUGGACUGGGCAGAGCUCAACACAGCGUGGCAAAGUGGCUGUGGCUAGACUGCCUCUCUGGAUUCCUCGUCACUCAGCAGGGCAUCUCUGAGAGAAAUGCC

Variants of: B1
Test: self-cleavage, relative activity (ratio to wild type); higher = more cleavage; in vitro, sequencing; the parent is a self-cleaving ribozyme

Variant	self-cleavage
U12G A24U	1.5
U96C A121C	0.09
G105A U134A	1.54
A42U	0.98
U102C U119C	1.69
U5C U81G	1.31
A69C G88A	0.01
U132C C133U	1.4
U29A G41A	1.7
U45A U52C	1.46
A64G U109C	0.2
G8A A22G	1
C28G C98A	0.12
A42G A136G	1.53
A24G C98A	0.13
U109G A141G	0.93
U46A G58A	0.04
U47C A142C	1.3
U15C A31U	0.95
U13C A65C	0.15
A67G U73C	0.66
U13C G32C	0.7
A42G U91C	0.68
G36A A142G	1.09

Variant	self-cleavage
U47C A124G	1.59
A31U G70A	0.26
A50G U130C	1.05
A42G C101A	0.95
U100G A142G	1.01
A65G C103U	0.06
U23C U91C	1.18
U9A A107G	1.02
G36A A121G	1.1
U52C U115C	1.64
C56G A77G	0.04
U85C C118U	0.1
G55A U87C	0.04
A43G U115A	0.95
U91C G125A	0.32
A50C U73G	0.79
U23A U46A	0.6
U20G G41U	0.84
U29A G35U	1.16
U39A A43U	1.39
A94G A117U	0.4
G75A A117U	1.53
G8A C61U	0.06
U104C U130C	1.71

Variant	self-cleavage
A67G G83C	0.13
A64G U108C	0.31
U1A U23C	2.04
U9C A78U	2.65
U47G A65G	0.1
U5C U104A	1.28
A6U A50G	0.72
U81A C123U	1.01
U13G U96C	0.14
U39C A124U	1.26
C120U A140G	1.1
U13C G125U	1.4
G44A A138G	1.55
A22G U132G	1.67
U29C A79U	2.16
U12G G58A	0.11
C68U U85A	0.03
A31U A117G	1.2
U81A U108A	2.18
U1C C113A	0.62
A42C A94G	0.28
C56U A142G	0.11
C111U U130A	0.93
A59G U143A	0.08

Variant	self-cleavage
A59G A140U	0.09
A78U U87C	0.84
U39C A121U	1.04
U9G U112C	0.73
C16U A117G	0.57
A77U U96G	0.27
A24U A43G	1.33
U85A U91C	0.04
A2U G97A	0.08
U134C U143A	1.37
U45A A136G	2
G7U A140U	1.34
A65U U85C	0.06
G4A U52C	0.88
G55A A64G	0
U96C G139U	0.14
U47C A141G	1.51
U13A A138G	1.22
A2U A67U	0.05
A30G G41U	1.66
G97C C111A	0.18
A31U U81C	0.75
A30G U81A	1.7
A30G U81C	1.33

Variant	self-cleavage
U96G	0.1
U14A C63U	0.09
A124G G125A	0.75
A67C A92G	0.05
A22C U143A	1.53
A2G U81A	0.74
U29C U73A	1.59
A30U C113U	0.88
U85A C101U	0.06
A6U C133U	1.04
U85A U115A	0.09
C37G G60A	0.06
C133A	1.37
A69G C90A	0
A2G A142U	1.12
U1A U91A	1.27
U52A A94G	0.33
A42U U47C	1.7
C17U U115C	1.48
G36C U143A	0.7
U109A C111U	1.56
U13A U15A	0.59
C76U U132A	2.54
A107G A129U	1.84

Variant	self-cleavage
U102C C118U	1.59
A77G U104A	1.64
G83U U102C	0
C37A C90U	0.04
U45C A59G	0.1
A22G U39A	1.72
C68U A107G	0.12
A65G U143C	0.08
U20G U81C	1.08
U15A U81C	1.14
C118U U143C	0.87
U52G U85A	0.17
U47A U115C	1.39
U14C A117U	1.3
A42G U134C	1.36
U47C G86A	0.06
A6G A43U	0.85
G4U U134A	1.07
U14C G72A	1.23
G82A U134G	1.08
U14G A117G	0.39
A42C G97C	0.11
U115A C145U	1.3
A22G U100C	1.75

Variant	self-cleavage
C51U G89U	0.03
U26A U87G	0.13
A24G U39C	1.11
A24G U39G	0.76
G58A	0.05
U87G A129G	0.27
G97A A136U	0.11
A22G A31G	0.35
C61A A79G	0.02
C37A A64U	0.35
C84U U102C	0.16
A43G A121U	1.23
C118U A129G	1.81
A69U C116A	0.05
U14A U108C	0.87
U46A A64U	0.46
A42U U108C	1.33
U47A A64C	0.25
U134A A141U	1.12
U15A U134A	0.87
G7A A22G	1.36
U47G U73A	1.18
A50C U85A	0.04
